Assay results reported in patent publication US20240262905A1.
Like-named read-outs stand apart in the source and are kept apart here.

Legend:
Insulin [1] = assay: ELISA, plate coated with insulin 5 ug/mL, test article at 100 nM, anti-human Fc-HRP detection
Insulin [2] = assay: as above; remark: listed apart in the source

Substance: Lenzilumab (antibody)
- Insulin polyreactivity score (Insulin [1]): 40
- Insulin polyreactivity score (Insulin [2]): 18

Substance: Elotuzumab (antibody)
- Insulin polyreactivity score (Insulin [1]): 1.4
- Insulin polyreactivity score (Insulin [2]): 2.2
